T1: binding between SEMG2 and CD27 (Homo sapiens, UniProt Q02383)
T1 sequence (Q02383 24-582): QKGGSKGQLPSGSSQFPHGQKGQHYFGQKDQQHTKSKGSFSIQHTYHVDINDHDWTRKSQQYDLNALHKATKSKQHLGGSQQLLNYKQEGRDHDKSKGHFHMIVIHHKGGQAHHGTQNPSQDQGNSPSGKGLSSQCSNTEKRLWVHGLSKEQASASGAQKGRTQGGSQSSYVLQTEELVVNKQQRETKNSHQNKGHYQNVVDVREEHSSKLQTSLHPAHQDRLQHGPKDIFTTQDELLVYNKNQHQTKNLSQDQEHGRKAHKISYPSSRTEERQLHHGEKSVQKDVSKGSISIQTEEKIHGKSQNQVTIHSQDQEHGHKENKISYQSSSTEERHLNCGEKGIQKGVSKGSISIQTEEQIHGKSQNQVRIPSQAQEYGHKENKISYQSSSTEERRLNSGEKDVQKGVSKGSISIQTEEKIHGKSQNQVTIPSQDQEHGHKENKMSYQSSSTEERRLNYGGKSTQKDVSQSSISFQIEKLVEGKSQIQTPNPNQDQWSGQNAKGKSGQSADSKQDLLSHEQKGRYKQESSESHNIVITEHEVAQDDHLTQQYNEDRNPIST


Legend:
[1] = target: T1, binding between SEMG2 and CD27; test: Antibody blocking ELISA of SEMG2 binding to CD27-Fc; conditions: antibody 10 μg/mL
Source text: Because SEMG2 (497-509) sequence fragment is the key epitope of SEMG2 binding to CD27, and has a relatively short sequence, so SEMG2 (497-509) was used as an immunogen to prepare antibodies, which is theoretically easier to obtain functional antibody molecules with the function of blocking the binding between SEMG2 and CD27 than using full-length SEMG2 to prepare antibodies. For direct comparison, the differences in effective concentration of producing antibody by the two methods were verified using ELISA in the examples. Antibodies produced with SEMG2 (497-509) as immunogen and antibodies produced with full-length SEMG2 were added into the enzyme-linked immunosorbent assay (ELISA) reaction system at different concentrations (10^-2, 10^-1, 10^0, 10^1, 10^2, 10^3, 10^4 μg/mL), and the ELISA binding values were measured. The specific steps of enzyme-linked immunosorbent assay are as follows: (1) Dissolve SEMG2 protein antigen with 50 mM carbonate coating buffer (pH 9.6) to make the antigen concentration 10 μg/mL, and add into 96-well ELISA plate (purchased from Corning) at 100 μL/well, place at 4° C. overnight. (2) After discarding the coating solution on the next day, wash with PBST for three times, add 150 μL of 1% BSA to each well, and block for 2 hours at 37° C. […] (4) After washing for 5 times with PBST, add 100 of diluted HRP-labeled anti-human Fe secondary antibody, and incubate at 37° C. for 1 hour. (5) After washing with PBST for 5 times, 20 min after developing with chromogenic agent, the A450 absorption value was read using the microplate reader.
The SEMG2 (497-509) sequence was used to synthesize a polypeptide and coupled to a VLP carrier for immunization; HEK293 cells were used to express the full-length SEMG2 protein, and the purity was tested to reach 92%, and the binding activity of SEMG2 protein to CD27 was verified by ELISA. The protein and polypeptide antigens were used to immunize 10 mice respectively, and multiple immunizations were performed to enhance the effect: (1) The first immunization, 50 μg/mice of antigen, multiple subcutaneous injections together with Freund's complete adjuvant, with an interval of 3 weeks; (2) the second immunization; the same dosage and route as above, with incomplete Freund's adjuvant, and with an interval of 3 weeks; (3) the third immunization, the same dosage as above, without adjuvant, intraperitoneal injection with an interval of 3 weeks; (4) the booster immunization, the dose is 50 μg, intraperitoneal injection. 3 days after the last injection, blood was collected to measure its titer and the immune effect, and mice with higher titers were selected for hybridoma fusion screening. After subcloning, the binding of the monoclonal antibodies to the target antigens was detected by ELISA, and the function of different monoclonal antibodies in blocking the binding between SEMG2 and CD27 was measured by ELISA.
First, SEMG2(497-509) epitope-specific antibodies (for example, MM02, MM05) were compared with other epitope-specific antibodies (for example, HPA042767) for their function in blocking binding between SEMG2 and CD27 at different concentration ranges. […] The blocking function of different antibodies (irrelative mouse IgG, MM02, MM05, HPA042767) on binding between SEMG2 and CD27 was analyzed by the ELISA experiment as described in Example 11.
Further, the effects of different antibodies on the binding between SEMG2 and CD27 were compared under the condition of the same antibody concentration. In the ELISA, the same concentration (10 μg/mL) of antibody was used, and the strength of the binding between SEMG2 and CD27 was measured. […]

[2] = tested on: LOVO human colorectal cancer cells; test: Tumor cell killing by activated PBMC, caspase-3/7 apoptosis; format: cell-based; conditions: SEMG2-positive, co-culture with activated PBMC 10:1
Protocol: (§1) To test the above hypothesis, the effects of different epitope-specific antibodies on tumor cell killing by activated PBMC were compared. Specifically, A375 human melanoma and LOVO human colorectal cancer cells highly expressing SEMG2 were seeded in 96-well plate. Human peripheral blood mononuclear cells (PBMC; #70025, Stem Cell) were activated with 100 ng/mL of CD3 antibody, 100 ng/mL, of CD28 antibody, and 1.0 ng/mL of IL2 (#317303; #302913; #589102, BioLegend), respectively, and co-cultured with the above tumor cells at a ratio of 10:1 in presence of fluorescent caspase-3/7 substrate (#4440, Essen Bioscience). After 1.0 hours, cells were observed under fluorescence microscope.
(§2) To verify the above hypothesis, tumor cells with high SEMG2 expression (A375, LOVO) and SEMG2-negative tumor cells (DLD1, NCM460 and NCI-H1975) were selected. Different antibodies (irrelevant mouse IgG antibodies, MM02 or MM05 antibodies) were added during the PBMC killing experiments for the tumor cells.
(§3) To verify the effect of the human antibodies on the function of activated PBMC on tumor cell killing, A375 and LOVO cells were co-cultured with activated PBMC, and H88-93, H88-96, or H88-67 antibody was added at the same time, and the apoptosis ratio of tumor cells were detected.

[3] = tested on: A375 human melanoma cells; test: as above; format: cell-based; conditions: A375, SEMG2-positive, co-culture with activated PBMC 10:1
Protocol: as §1, §2, §3

[4] = target: T2, SEMG2(497-509) fragment (Homo sapiens, UniProt Q02383); test: ELISA binding of antibodies to SEMG2(497-509) epitope
T2 construct: SEMG2(497-509) fragment and SEMG2(563-574) fragment were immobilized on the ELISA plate; made in house; host or cells: chemical synthesis
Protocol: Specifically, SEMG2 full-length protein (1-582), SEMG2(354-403) fragment, SEMG2(442-453) fragment, SEMG2(497-509) fragment and SEMG2(563-574) fragment were immobilized on the ELISA plate, and the same concentration of antibodies (MM02, MM05, MM07, MM08, MM13, MM14, HPA042767 and HPA042835) were added. Anti-mouse or anti-rabbit secondary antibodies were then used to detect the corresponding bound antibodies. MM02, MM05, MM07, MM08, MM13, and MM14 all bound to SEMG2(497509) epitope, HPA042767 bound to SEMG2 (354-403) epitope, and HPA042835 bound to […], while none of the antibodies bound to SEMG2 (442-453) control fragment.
Specifically, the preparation of polypeptide antigens and the screening of human natural antibody library were firstly performed. The SEMG2(497-509) polypeptide was synthesized and coupled to BSA and KLH, respectively, and screened in a fully human phage display antibody library. ELISA was used to select clones that bind to antigenic epitopes for preliminary screening. Different unique sequences were obtained after sequencing single colonies, sorted according to affinity sorting, and full-length antibodies were constructed from antigen-binding fragments (Fab) with relatively high affinity. The binding ability and blocking function tests were performed after purification, that is, the effect of the antibody on binding between SEMG2 and CD27 was determined by the ELISA experiment.

Row | Molecule | effect on the binding between SEMG2 and CD27 [1] | apoptosis tumor cell ratio / killing by activated PBMC [2] | apoptosis tumor cell ratio / killing by activated PBMC [3] | binding to SEMG2(497-509) epitope [4]
1 | H88-96: fully human antibody from phage library against SEMG2(497-509), VH SEQ ID NO:54, VL SEQ ID NO:57 (antibody, V domains shown, UNSURE (1)..(124) VH; UNSURE (1)..(107) VL) VH: QVQLLESGGGLVQPGGSLRLSCSASGFTFSSYAMHWVRQAPGKGLEYVSAISSNGGSTYYADSVKGRFTISRDNSKNTLYLQMSSLRAEDTAVYYCVIEGGSTTGTTSGAFDIWGQGTMVTVSS VL: DIQMIQSPPSVSASVGDTVTIACRANQGIDSWLAWYQQKPGRAPKLLIYSASRLQSGVPSRFSGGGSGTDFALTISNLQPEDFATYYCQQALSLPITFGQGTRLEIK | inhibited the binding | significantly promote the killing | significantly promote the killing | bind
2 | MM07: mouse monoclonal antibody against SEMG2(497-509), mIgG2b kappa, VH SEQ ID NO:37, VL SEQ ID NO:44 (antibody, V domains shown, UNSURE (1)..(134) VH; UNSURE (1)..(129) VL) VH: MDWLWTLLFLMAAAQSIQAQIQLVQSGPELKKPGETVRISCKASGYTLTTAGMQWVQKIPGKGLKWIGWINTHSGVAEFAEDFKGRFAFSLETSANTAYLQIRNLKNEDTATYFCARLGLLGYWGQGTTLTVSS VL: MVSSAQFLVFLLFWIPASRGDILLTQSPAILSVSPGERVSFSCRASQSIGTTIHWYQQRTNGSPRLLIKYASESISGIPSRFSGSGSGTDFTLSINSVESEDIADYYCQQSNSWPWTFGGGTKLEIKRA | significantly reduced the binding | significantly increased | significantly increased | bound
3 | MM08: mouse monoclonal antibody against SEMG2(497-509), mIgG1 kappa, VH SEQ ID NO:38, VL SEQ ID NO:45 (antibody, V domains shown, UNSURE (1)..(120) VH; UNSURE (1)..(115) VL) VH: QVQLQQPGAELVRPGASVKLSCKSSDYTFTRYWMNWVKQRPGQGLEWIGMIDPSDSETHHNQMFKDKATLTVDKSSSTAYMQLSSLTSEDSAVYFCARYLGGKEGSFDYWGQGTTLTVSS VL: DIVLTQSPSSLAVSAGERVTMSCKSSQSLFNSRTRKNYLAWYQQKPGQSPKLLLYWASTRESGVPDRFTGSGSGTDFTLTISSVKTEDLAVYYCKQSYELPWTFGGGTKLEMKRA | significantly reduced the binding | significantly increased | significantly increased | bound
4 | MM14: mouse monoclonal antibody against SEMG2(497-509), mIgG2b kappa, VH SEQ ID NO:40, VL SEQ ID NO:47 (antibody, V domains shown, UNSURE (1)..(122) VH; UNSURE (1)..(108) VL) VH: QVQLKESGPGLVAPSQSLSITCTVSGFSLTSYAVSWVRQPPGKGLEWLGIIWGDGSTNYHSALISRLSISKDNSKSQVFLKLNSLQTDDTATYYCAKQERFSDGYYDGFAYWGQGTLVTVSA VL: QIVLTQSPAIMSASPGEKVTITCSASSSVSYMHWFQQKPGTSPKLWIYSTSNLASGVPARFSGSGSGTSYSLTISRMEAEDAATYYCQQRSSYPFTFGSGTKLEIKRA | significantly reduced the binding | significantly increased | significantly increased | bound
